Laboratory results as given in patent publication US5686574.

Tested on: TR/CAR chimera (TR beta A/B and C domains fused to CAR D, E, F domains)
Experiment: cell_activity
Details: no ligand, charcoal-stripped serum; JEG3 cells

AAAGGTAAGATCAGGGACGTGACCGCAG (double strand) [T3RE]
activity (% of TR beta response): > 50
